From patent US20040067513A1

Target: OB-RL(wt)
Assay: cell-based or functional assay

- Reporter Activity (GT1-7 cells, leptin +; 3041 without leptin): 27000
- Reporter Activity (cells co-transfected with 84569 cDNA, leptin +; 4146 without leptin): 7600
- Reporter Activity (cells co-transfected with control vector, leptin +; 4316.5 without leptin): 25000
Substance: Leptin (ligand)
